Laboratory results published in US20200264182A1, “METHOD FOR DETECTING PROSTATE CANCER” (J-OIL MILLS, INC., priority 2017, published 2020).

Columns and labels:
FAC binding constant = conditions: at 25° C.
Description: (§1) Details of the FAC method are described in Patent Document 2 filed by some of the present applicants, for example.
(§2) Binding constants (at 25° C.) of PhoSL, SRL, NSL and LSL belonging to the fucose α1→6 specific lectin for various sugar chains are shown in Tables 2 to 5.

[1] = FAC binding constant (Table 5 entry); conditions: Table 5: sugar chain having no fucose; at 25° C.
Description: as §1, §2

[2] = Binding to sugar chains, summary of Tables 2 to 5
Description: as §1, §2
The AAL and AOL bind to the fucose α1→6 sugar chains (sugar chains No. 015, 201 to 203, and 401 to 418), as well as to the glycolipid-type sugar chain excluding the fucose α1→6 (sugar chains No. 718, 722, 723, 727, 909, 910 and 933). The LCL and PSL bind to the fucose α1→6 sugar chain, as well as to sugar chain excluding the α1→6 fucose (sugar chains No. 003, and 005 to 014).
Furthermore, the binding constant of the fucose α1→6 specific lectin is not decreased even if a sialic acid is added to the fucose α1→6 sugar chain (sugar chains No. 601 and 602). In addition, the fucose α1→6 specific lectin also strongly binds to the triple-strand (sugar chains No. 407 to 413) and the four-strand (sugar chains No. 418) of the fucose uα1→6 sugar chain.

[3] = sugar chain having fucose other than α1→6 fucose

B1: LCL: Lens culinaris lectin, affinity for fucose α1→6 but not specific (protein)
chain 1: TETTSFSITKFSPDQKNLIFQGDGYTTKGKLTLTKAVKSTVGRALYSTPIHIWDRDTGNVANFVTSFTFVIDAPSSYNVADEFTFFIAPVDTKPQTGGGYLGVFNSKEYDKTSQTVAVEFDTFYNAAWDPSNKERHIGIDVNSIKSVNTKSWNLQNGERANVVIAFNAATNVLTVTLTYP
chain 2: VTSYTLNEVVPLKDVVPEWVRIGFSATTGAEFAAHEVHSWSFHSELGGTSSS
Binding constant for sugar chain No. 728 (FAC binding constant; Table 3: sugar chain having fucose other than α1→6 fucose): <1000 M⁻¹ | Binding constant for sugar chain No. 419 (FAC binding constant; [3]): <1000 M⁻¹ | Binding constant for sugar chain No. 420 (FAC binding constant; [3]): <1000 M⁻¹ | Binding constant for sugar chain No. 718 (FAC binding constant; [3]): <1000 M⁻¹ | Binding constant for sugar chain No. 719 (FAC binding constant; [3]): <1000 M⁻¹ | Binding constant for sugar chain No. 720 (FAC binding constant; [3]): <1000 M⁻¹ | Binding constant for sugar chain No. 721 (FAC binding constant; [3]): <1000 M⁻¹ | Binding constant for sugar chain No. 722 (FAC binding constant; [3]): <1000 M⁻¹ | Binding constant for sugar chain No. 723 (FAC binding constant; [3]): <1000 M⁻¹ | Binding constant for sugar chain No. 726 (FAC binding constant; [3]): <1000 M⁻¹ | Binding constant for sugar chain No. 727 (FAC binding constant; [3]): <1000 M⁻¹ | Binding constant for sugar chain No. 729 (FAC binding constant; [3]): <1000 M⁻¹ | Binding constant for sugar chain No. 730 (FAC binding constant; [3]): <1000 M⁻¹ | Binding constant for sugar chain No. 731 (FAC binding constant; [3]): <1000 M⁻¹ | Binding constant for sugar chain No. 739 (FAC binding constant; [3]): <1000 M⁻¹ | Binding constant for sugar chain No. 909 (FAC binding constant; [3]): <1000 M⁻¹ | Binding constant for sugar chain No. 910 (FAC binding constant; [3]): <1000 M⁻¹ | Binding constant for sugar chain No. 931 (FAC binding constant; [3]): <1000 M⁻¹ | Binding constant for sugar chain No. 932 (FAC binding constant; [3]): <1000 M⁻¹ | Binding constant for sugar chain No. 933 (FAC binding constant; [3]): <1000 M⁻¹ | Binding constant for sugar chain No. 001 (FAC binding constant; sugar chain having no fucose): <1000 M⁻¹ | Binding constant for sugar chain No. 002 (FAC binding constant; sugar chain having no fucose): <1000 M⁻¹ | Binding constant for sugar chain No. 003 (FAC binding constant; sugar chain having no fucose): 7200 M⁻¹ | Binding constant for sugar chain No. 004 (FAC binding constant; sugar chain having no fucose): <1000 M⁻¹ | Binding constant for sugar chain No. 005 (FAC binding constant; sugar chain having no fucose): <1000 M⁻¹ | Binding constant for sugar chain No. 006 (FAC binding constant; sugar chain having no fucose): 14000 M⁻¹ | Binding constant for sugar chain No. 007 (FAC binding constant; sugar chain having no fucose): <1000 M⁻¹ | Binding constant for sugar chain No. 008 (FAC binding constant; sugar chain having no fucose): 18000 M⁻¹ | Binding constant for sugar chain No. 009 (FAC binding constant; sugar chain having no fucose): 18000 M⁻¹ | Binding constant for sugar chain No. 010 (FAC binding constant; sugar chain having no fucose): 13000 M⁻¹ | Binding constant for sugar chain No. 011 (FAC binding constant; sugar chain having no fucose): 14000 M⁻¹ | Binding constant for sugar chain No. 012 (FAC binding constant; sugar chain having no fucose): 25000 M⁻¹ | Binding constant for sugar chain No. 013 (FAC binding constant; sugar chain having no fucose): 17000 M⁻¹ | Binding constant for sugar chain No. 014 (FAC binding constant; sugar chain having no fucose): 17000 M⁻¹ | Binding constant for sugar chain No. 101 (FAC binding constant; sugar chain having no fucose): <1000 M⁻¹ | Binding constant for sugar chain No. 103 (FAC binding constant; sugar chain having no fucose): <1000 M⁻¹ | Binding constant for sugar chain No. 104 (FAC binding constant; sugar chain having no fucose): <1000 M⁻¹ | Binding constant for sugar chain No. 105 (FAC binding constant; sugar chain having no fucose): <1000 M⁻¹ | Binding constant for sugar chain No. 107 (FAC binding constant; sugar chain having no fucose): <1000 M⁻¹ | Binding constant for sugar chain No. 108 (FAC binding constant; sugar chain having no fucose): <1000 M⁻¹ | Binding constant for sugar chain No. 301 (FAC binding constant; sugar chain having no fucose): <1000 M⁻¹ | Binding constant for sugar chain No. 304 (FAC binding constant; sugar chain having no fucose): <1000 M⁻¹ | Binding constant for sugar chain No. 305 (FAC binding constant; sugar chain having no fucose): <1000 M⁻¹ | Binding constant for sugar chain No. 307 (FAC binding constant; sugar chain having no fucose): <1000 M⁻¹ | Binding constant for sugar chain No. 308 (FAC binding constant; sugar chain having no fucose): <1000 M⁻¹ | Binding constant for sugar chain No. 313 (FAC binding constant; sugar chain having no fucose): <1000 M⁻¹ | Binding constant for sugar chain No. 314 (FAC binding constant; sugar chain having no fucose): <1000 M⁻¹ | Binding constant for sugar chain No. 323 (FAC binding constant; sugar chain having no fucose): <1000 M⁻¹ | Binding constant for sugar chain No. 501 (FAC binding constant; sugar chain having no fucose): <1000 M⁻¹ | Binding constant for sugar chain No. 502 (FAC binding constant; sugar chain having no fucose): <1000 M⁻¹ | Binding constant for sugar chain No. 503 (FAC binding constant; sugar chain having no fucose): <1000 M⁻¹ | Binding constant for sugar chain No. 504 (FAC binding constant; sugar chain having no fucose): <1000 M⁻¹ | Binding constant for sugar chain No. 701 (FAC binding constant; sugar chain having no fucose): <1000 M⁻¹ | Binding constant for sugar chain No. 702 (FAC binding constant; sugar chain having no fucose): <1000 M⁻¹ | Binding constant for sugar chain No. 703 (FAC binding constant; sugar chain having no fucose): <1000 M⁻¹ | Binding constant for sugar chain No. 704 (FAC binding constant; sugar chain having no fucose): <1000 M⁻¹ | Binding constant for sugar chain No. 705 (FAC binding constant; sugar chain having no fucose): <1000 M⁻¹ | Binding constant for sugar chain No. 706 (FAC binding constant; sugar chain having no fucose): <1000 M⁻¹ | Binding constant for sugar chain No. 707 (FAC binding constant; sugar chain having no fucose): <1000 M⁻¹ | Binding constant for sugar chain No. 708 (FAC binding constant; sugar chain having no fucose): <1000 M⁻¹ | Binding constant for sugar chain No. 709 (FAC binding constant; sugar chain having no fucose): <1000 M⁻¹ | Binding constant for sugar chain No. 710 (FAC binding constant; sugar chain having no fucose): <1000 M⁻¹ | Binding constant for sugar chain No. 711 (FAC binding constant; sugar chain having no fucose): <1000 M⁻¹ | Binding constant for sugar chain No. 712 (FAC binding constant; sugar chain having no fucose): <1000 M⁻¹ | Binding constant for sugar chain No. 713 (FAC binding constant; sugar chain having no fucose): <1000 M⁻¹ | Binding constant for sugar chain No. 715 (FAC binding constant; sugar chain having no fucose): <1000 M⁻¹ | Binding constant for sugar chain No. 716 (FAC binding constant; sugar chain having no fucose): <1000 M⁻¹ | Binding constant for sugar chain No. 717 (FAC binding constant; sugar chain having no fucose): <1000 M⁻¹ | Binding constant for sugar chain No. 724 (FAC binding constant; sugar chain having no fucose): <1000 M⁻¹ | Binding constant for sugar chain No. 725 (FAC binding constant; sugar chain having no fucose): <1000 M⁻¹ | Binding constant for sugar chain No. 732 (FAC binding constant; sugar chain having no fucose): <1000 M⁻¹ | Binding constant for sugar chain No. 733 (FAC binding constant; sugar chain having no fucose): <1000 M⁻¹ | Binding constant for sugar chain No. 734 (FAC binding constant; sugar chain having no fucose): <1000 M⁻¹ | Binding constant for sugar chain No. 735 (FAC binding constant; sugar chain having no fucose): <1000 M⁻¹ | Binding constant for sugar chain No. 736 (FAC binding constant; sugar chain having no fucose): <1000 M⁻¹ | Binding constant for sugar chain No. 737 (FAC binding constant; sugar chain having no fucose): <1000 M⁻¹ | Binding constant for sugar chain No. 738 (FAC binding constant; sugar chain having no fucose): <1000 M⁻¹ | Binding constant for sugar chain No. 901 (FAC binding constant; sugar chain having no fucose): <1000 M⁻¹ | Binding constant for sugar chain No. 902 (FAC binding constant; sugar chain having no fucose): <1000 M⁻¹ | Binding constant for sugar chain No. 903 (FAC binding constant; sugar chain having no fucose): <1000 M⁻¹ | Binding constant for sugar chain No. 905 (FAC binding constant; sugar chain having no fucose): <1000 M⁻¹ | Binding constant for sugar chain No. 906 (FAC binding constant; sugar chain having no fucose): <1000 M⁻¹ | Binding constant for sugar chain No. 907 (FAC binding constant; sugar chain having no fucose): <1000 M⁻¹ | Binding constant for sugar chain No. 015 (FAC binding constant; sugar chain having α1→6 fucose): 56000 M⁻¹ | Binding constant for sugar chain No. 201 (FAC binding constant; sugar chain having α1→6 fucose): 500000 M⁻¹ | Binding constant for sugar chain No. 202 (FAC binding constant; sugar chain having α1→6 fucose): 110000 M⁻¹ | Binding constant for sugar chain No. 203 (FAC binding constant; sugar chain having α1→6 fucose): 730000 M⁻¹ | Binding constant for sugar chain No. 401 (FAC binding constant; sugar chain having α1→6 fucose): 42000 M⁻¹ | Binding constant for sugar chain No. 402 (FAC binding constant; sugar chain having α1→6 fucose): 59000 M⁻¹ | Binding constant for sugar chain No. 403 (FAC binding constant; sugar chain having α1→6 fucose): 99000 M⁻¹ | Binding constant for sugar chain No. 404 (FAC binding constant; sugar chain having α1→6 fucose): 58000 M⁻¹ | Binding constant for sugar chain No. 405 (FAC binding constant; sugar chain having α1→6 fucose): 47000 M⁻¹ | Binding constant for sugar chain No. 406 (FAC binding constant; sugar chain having α1→6 fucose): 18000 M⁻¹ | Binding constant for sugar chain No. 407 (FAC binding constant; sugar chain having α1→6 fucose): 1000 M⁻¹ | Binding constant for sugar chain No. 410 (FAC binding constant; sugar chain having α1→6 fucose): <1000 M⁻¹ | Binding constant for sugar chain No. 413 (FAC binding constant; sugar chain having α1→6 fucose): <1000 M⁻¹ | Binding constant for sugar chain No. 418 (FAC binding constant; sugar chain having α1→6 fucose): <1000 M⁻¹ | Binding constant for sugar chain No. 601 (FAC binding constant; sugar chain having α1→6 fucose): 30000 M⁻¹ | Binding constant for sugar chain No. 602 (FAC binding constant; sugar chain having α1→6 fucose): 24000 M⁻¹ | Binding constant for sugar chain No. 728 [1]: <1000 M⁻¹ | binding to sugar chain excluding the α1→6 fucose (in words) ([2]; sugar chains No. 003, and 005 to 014 for LCL and PSL): bind | binding to the fucose α1→6 sugar chains (in words) ([2]; sugar chains No. 015, 201 to 203, and 401 to 418): bind
